{
  "source": "paper PMC2216138",
  "about": "(The Journal of General Physiology, 1988)",
  "key": {"[1]": {"molecular_target": "T1, High-conductance, Ca2+-activated K+ channel from rat skeletal muscle (rat (endogenous in skeletal muscle), UniProt Q62976 1-1209)", "T1 sequence (Q62976 whole entry)": "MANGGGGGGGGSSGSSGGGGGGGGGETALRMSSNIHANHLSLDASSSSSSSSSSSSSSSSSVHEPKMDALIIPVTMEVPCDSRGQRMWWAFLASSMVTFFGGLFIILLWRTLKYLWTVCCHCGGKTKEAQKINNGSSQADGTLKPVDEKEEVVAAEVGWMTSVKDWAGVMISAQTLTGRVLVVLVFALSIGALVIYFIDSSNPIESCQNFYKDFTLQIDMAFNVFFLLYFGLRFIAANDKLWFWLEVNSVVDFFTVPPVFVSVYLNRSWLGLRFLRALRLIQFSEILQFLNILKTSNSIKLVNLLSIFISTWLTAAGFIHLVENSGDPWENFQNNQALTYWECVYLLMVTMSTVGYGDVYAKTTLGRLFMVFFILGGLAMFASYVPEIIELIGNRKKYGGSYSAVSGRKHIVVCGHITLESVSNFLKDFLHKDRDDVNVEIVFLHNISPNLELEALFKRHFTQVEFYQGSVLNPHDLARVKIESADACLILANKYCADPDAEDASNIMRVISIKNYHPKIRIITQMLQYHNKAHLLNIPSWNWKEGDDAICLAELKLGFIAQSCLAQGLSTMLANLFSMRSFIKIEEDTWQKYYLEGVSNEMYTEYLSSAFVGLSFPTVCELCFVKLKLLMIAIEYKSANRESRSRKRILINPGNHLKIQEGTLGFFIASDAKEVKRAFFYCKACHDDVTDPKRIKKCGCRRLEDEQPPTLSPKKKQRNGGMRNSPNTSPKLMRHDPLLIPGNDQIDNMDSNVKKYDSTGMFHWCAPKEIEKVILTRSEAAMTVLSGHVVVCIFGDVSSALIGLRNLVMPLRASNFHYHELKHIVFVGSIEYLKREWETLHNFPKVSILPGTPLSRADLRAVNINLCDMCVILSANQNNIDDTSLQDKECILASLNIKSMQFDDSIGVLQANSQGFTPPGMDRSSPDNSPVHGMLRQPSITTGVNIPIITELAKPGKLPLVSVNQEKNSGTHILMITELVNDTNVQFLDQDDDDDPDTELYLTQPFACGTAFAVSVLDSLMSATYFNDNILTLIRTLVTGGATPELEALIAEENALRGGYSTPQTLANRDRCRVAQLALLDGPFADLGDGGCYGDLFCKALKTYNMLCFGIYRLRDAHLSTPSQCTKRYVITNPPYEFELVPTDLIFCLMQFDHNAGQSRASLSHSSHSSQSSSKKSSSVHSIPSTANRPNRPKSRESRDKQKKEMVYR", "experiment": "single-channel recording in planar lipid bilayers"}, "[2]": {"molecular_target": "T1, High-conductance, Ca2+-activated K+ …", "experiment": "single-channel recording in planar lipid bilayers", "remark": "listed apart in the source"}},
  "note": "Read-outs that look alike come from different tables or passages of the source.",
  "data": [
    {"binder": "QFTNVSCTTSKECWSVCQRLHNTSRGKCMNKKCRCYS (natural protein)", "note": "[Charybdotoxin]", "values": [
      {"measurement": "koff", "setting": "[1]", "value": "~0.01", "unit": "s⁻¹"},
      {"measurement": "koff", "setting": "[2]", "value": 0.01, "unit": "s⁻¹"}
    ]}
  ]
}
